According to the supplement of paper PMC12042874:
± gives the uncertainty stated by the source.

Assay: amyloid nucleation score (Sup35N fusion, yeast selection) (log enrichment); library NNK3; higher = more nucleation; inactive = no reads after selection
Outline: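 Output and input plasmid inserts were sequenced by Illumina after psi-negative yeast carrying Sup35N fused to peptides of 20 random codons had been induced 24 hours with 100 μM copper sulfate and grown 7 days at 30°C on medium lacking adenine and uracil. The nucleation score is the DiMSum log enrichment of output over input reads, centred on the mode score of non-aggregating sequences. Sequences with under 100 input reads were excluded.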

Substance	amyloid nucleation score
PFTLSSMVSVLPMGFRIGDK	inactive
SMDTSTPTIV	inactive
RIDIGY	0.612 ± 0.17
SQCGLTHSLVVGGSSVNTHT	inactive
NRGSGRSMYMRSSFYSESGS	0.522 ± 0.28
YVGVVVYLLPMLGALYGFGD	inactive
NSSAYFFDAAGSTRLDQASY	inactive
NFWFCLISYCESFSMISERG	inactive
QLLGNGP	inactive
VFIKLPVRSS	-0.192 ± 0.96
VRSRLGSGRDEKPRALSSCM	inactive
DVPSSSSMAFGIWLGLLCLD	inactive
MFTTSCWILKER	0.248 ± 0.23
FLYFTHARFHR	1.79 ± 0.094
FRSRRARGKNGIEMRILRHQ	-0.109 ± 0.69
MFVYR	inactive
SFFKNGGELVMSCVSVSPDI	inactive
FHYLMMTFIV	inactive
GICKGNMYRFSMSYDSNLIM	inactive
RSRKVNWCSLFVVVSHVGWK	inactive
HDCCDLGFSVDV	inactive
YFLEGNFESRWGECRSARSW	0.053 ± 0.52
GCIDEDCGVLIIKFYNIRRY	0.118 ± 0.59

Substance	amyloid nucleation score
HTYLLLRDNLLFTVIHTPRN	2.02 ± 0.075
PLMRTGEDISPERQRDGRGK	inactive
VKVES	-0.195 ± 1.1
LRIKMGIYAHDLCAVIMYTL	0.515 ± 0.35
TYIPFIIYLIGCVLVYVYVL	inactive
TLVFHISFGDLVHEILNCAV	2.17 ± 0.088
FMSFSRGCTWSLGWA	inactive
SWWVTGIALEHGSGLTVQVH	inactive
TFHLRDCKSF	0.133 ± 1
FFNIMCYRHWLKVKLYYIVK	1.9 ± 0.06
YFYSSDALPSIS	inactive
GRILLYLNEFFSGRIISLHK	inactive
YDCVGDGWRPWLRPEDRSHV	inactive
LLVSIFLGYPQ	inactive
LNLLKLRKKAPHRPIPGRSG	inactive
GCNLTYNVIGFGLYMKFRDE	1.85 ± 0.069
GICIGTDKTFYCLGMSFF	inactive
LAFKSDLSFNETVRKSSWLC	inactive
SFPINGYMFSGYLERWCFTS	inactive
ENNVRTVHVISWAIFLSTYF	inactive
TNMYYSRVANDGIF	inactive
VYRGLQWECLDGIVAFRRER	inactive
DTESWNCFFYRDYYSGQILK	inactive

Substance	amyloid nucleation score
GMGCTMLNYLMLWESFDTRP	0.586 ± 0.17
VEPRWNRLVGNHVCSFDGNV	inactive
AGWIDAYRFYNELLLGLRDH	inactive
YIASLLDYFCMQEDQAYFDY	inactive
FCARYLFCLISGDYS	inactive
AIINSVREPWAPAMAHTNNA	0.586 ± 0.21
FINFELLRSSSNNV	inactive
PTKDVMVGSK	inactive
SMSTN	inactive
TVVRNGIKTVYGLVDCVDS	inactive
CSCIGWLRNGDVSCNVDRAS	inactive
LPFNGTGTAWCSAGAQLFGR	0.837 ± 0.15
QMYKYNPNLYFFSVAVNLVV	2.18 ± 0.073
TGQYMYKWSGLRWSYGGTFA	inactive
AFVFATAITELVYCSCLNRP	2.04 ± 0.089
AVIDRNYVRTALAVMIASGH	inactive
GILIFTGYEDIFSCESDGSW	inactive
RFYLDLEQQHLEIVGESR	inactive
LKVVVDQKVG	1.27 ± 0.15
SNSSHRRYYGHVRRNL	inactive
VSCYSRYRVVVHRGSVVISR	inactive
VKDGTLCWCRAPFRCCRMPI	-0.426 ± 1.1
SLISNCPIVWNRIWISYHFH	0.738 ± 0.3

Substance	amyloid nucleation score
SNPHDDSHDVILVFLVLGRC	inactive
SIFIMHGRMKF	1.47 ± 0.072
CLGVSNTYHWSYRRIFRYRF	inactive
TADYDYQAEVCCLVIMCVHN	inactive
AIEKGHK	0.235 ± 0.19
NVYSPKRVLSGCLSPDISEF	inactive
LSGVSWKLCVYCFTVRGAAL	0.863 ± 0.22
FVSSVASFVSHKLVMKLSAM	inactive
LLQFLMFARNSMIKVVRSMV	inactive
DLPVGLWKQESLSAGMYNSW	inactive
TYIRGQRCDIQMETWMTLCS	inactive
RYSRWLGT	inactive
TDNAVMGSHCI	inactive
NMMPREPDTFMGYSGRRLCV	-0.284 ± 1.1
ILFRGPKLCKNGHVL	inactive
LIVSIYMCGCRKRITFLRVS	inactive
MCYFEYNDVNWRVLLLYLCK	inactive
VVINHYMNHIAEHTDSLRGG	1.57 ± 0.075
RSPYNFCKALRMGWVTNKIS	inactive
GGLLWAKCVMLILYYVPMGL	inactive
RNWERIASGHVFCFLLCIID	inactive
TNVCLRRFLVTSLNGWVDGN	inactive
NCDCSIAEPESILRFESPRE	inactive

Substance	amyloid nucleation score
LGYDRQGLLTEVYRFSYIIL	inactive
RTCAYRMESVHVVRVSAGIM	inactive
CQYFLSWRASVC	inactive
TVEKTWKTVYIYKDSVTLRN	1.33 ± 0.12
ARSIFARLQYSHLSSRGEVI	0.018 ± 1
YMTCTR	inactive
RYLFRFYSRDVVSMMQ	inactive
KLSGTLFFGSKGFVFPPYAF	inactive
GYQLRRMMQTMRMKYRISSR	inactive
NIHFSITAQ	inactive
TWGIG	inactive
DYMLLWNCVLVILFN	0.323 ± 0.45
IIRCKMM	-0.538 ± 0.57
LFGDMIMVSSCWSKRNCSVA	inactive
SYCVRWNRIVDFVGSCRDHG	1.11 ± 0.11
WYADICCCQIFRCWKLDRWS	inactive
SRVITDVHERVAVGGVVIWD	0.003 ± 0.31
MRFLWCNVCL	2.07 ± 0.078
RGDVLRFTWCSEPGCQRRTT	inactive
ALRQRNDCEPYIVRTFWVET	inactive
TSETRPIGDA	inactive
VSYVGLDSDICSFNWLSLLA	inactive
HNGDRVDY	inactive

Substance	amyloid nucleation score
LSESYDRQRFKSTF	0.694 ± 0.21
LCMMMPRIIQFICHSYEHVD	inactive
FWGSTWSLRVL	inactive
VRMMFSWPK	0.902 ± 0.24
ISVTNGIMMVPLNGSNLFPS	-0.166 ± 0.62
LINEECFFACVEVIGNVFRV	-0.888 ± 1.1
NRSFSNGCVIRLELFNNVYA	inactive
TASYSLVVVVENRKSCMVDN	inactive
HKDLRYGWSSS	inactive
HGSSCTRWAWALMNILDCVM	inactive
WTVIDYDKTWIYLLASVLYL	inactive
CCIMQPCSVVVYQWSQNRSR	3.14 ± 0.053
TISCTDNFCSFILIRDGLTH	1.96 ± 0.059
RGILFLV	inactive
AYRLEPT	inactive
TRNWLDSRKLD	inactive
LSCWNIRGWLRWS	inactive
IRFPTHSMYSLLYKRFLSPD	-0.744 ± 1.8
CDEGSGWILFIRHLLLYWRG	inactive
EKRYRPEKTF	inactive
GVTLGQLR	1.42 ± 0.15
CLKTFVFMTDTRG	1.47 ± 0.12
MIMINVISQCKCAGWGGNRA	3.36 ± 0.053

Substance	amyloid nucleation score
PQLWSMYHSGP	-0.586 ± 1.4
MRFADFCRGYFRRGSYPLGF	inactive
GLKKWLFD	inactive
SLLDDRSPGLWILKTKVTAF	inactive
SCFCC	3.09 ± 0.061
LLVMGFCRVLCDLGGRYVRV	inactive
KGFFFCRTYVSSFWTKIGIF	inactive
FVMLVSEYGKELYIIGRPGA	inactive
RLDPLVDFANDLMTSYSR	inactive
DDRSP	inactive
RVVPL	inactive
LLAGQAIEIDVCAQGLKLKF	-0.968 ± 1.8
SLLTFCFHIESLWMWYWMCH	inactive
ECRHSEWTEYFPSMRFMQAY	inactive
SNRGVADLDLRGLWTARE	inactive
AGGLSGDNWRRIDG	inactive
YSLNTSFIYIKIRYH	1.28 ± 0.11
LFSTMFDTIENYNIGCTCGF	2.01 ± 0.053
TASRFFCRWVYFRKGVSRCS	inactive
FHVYCVWVRTLSCWRENNVK	1.5 ± 0.14
TPQPLIIAQIVASPSEKKLL	inactive
HSYTWICVARLPHWFWTQCL	1.71 ± 0.075
